Test results published in patent US20090209615A1, “INHIBITORS OF MATRIX METALLOPROTEINASES TO TREAT NEUROLOGICAL DISORDERS” (priority 2004, published 2009).

Experiment: Stability of S-nitrosothiols (NAT conversion from DAN)
Conditions: within 15 min of incubation

B1: S-nitroso-MMP-9: S-nitrosylation product of SNOC-treated R-proMMP-9 (protein, UniProt P14780 20-707, looked up)
pro-form: APRQRQSTLVLFPGDLRTNLTDRQLAEEYLYRYGYTRVAEMRGESKSLGPALLLLQKQLSLPETGELDSATLKAMRTPRCGVPDLGRFQTFEGDLKWHHHNITYWIQNYSEDLPRAVIDDAFARAFALWSAVTPLTFTRVYSRDADIVIQFGVAEHGDGYPFDGKDGLLAHAFPPGPGIQGDAHFDDDELWSLGKGVVVPTRFGNADGAACHFPFIFEGRSYSACTTDGRSDGLPWCSTTANYDTDDRFGFCPSERLYTQDGNADGKPCQFPFIFQGQSYSACTTDGRSDGYRWCATTANYDRDKLFGFCPTRADSTVMGGNSAGELCVFPFTFLGKEYSTCTSEGRGDGRLWCATTSNFDSDKKWGFCPDQGYSLFLVAAHEFGHALGLDHSSVPEALMYPMYRFTEGPPLHKDDVNGIRHLYGPRPEPEPRPPTTTTPQPTAPPTVCPTGPPTVHPSERPTAGPTGPPSAGPTGPPTAGPSTATTVPLSPVDDACNVNIFDAIAEIGNQLYLFKDGKYWRFSEGRGSRPQGPFLIADKWPALPRKLDSVFEERLSKKLFFFSGRQVWVYTGASVLGPRRLDKLGLGADVAQVTGALRSGRGKMLLFSGRRLWRFDVKAQMVDPRSASEVDRMFPGVPLDTHDVFQYREKAYFCQDRFYWRVSSRSELNQVDQVGYVTYDILQCPED
modifications: pro-form S-nitrosylated
remained: over 80%
